# T1: NifU (A. vinelandii NifU expressed in yeast strain SB33Y as SU9-NifU) (Azotobacter vinelandii, UniProt P05340 2-312)
# T1 sequence: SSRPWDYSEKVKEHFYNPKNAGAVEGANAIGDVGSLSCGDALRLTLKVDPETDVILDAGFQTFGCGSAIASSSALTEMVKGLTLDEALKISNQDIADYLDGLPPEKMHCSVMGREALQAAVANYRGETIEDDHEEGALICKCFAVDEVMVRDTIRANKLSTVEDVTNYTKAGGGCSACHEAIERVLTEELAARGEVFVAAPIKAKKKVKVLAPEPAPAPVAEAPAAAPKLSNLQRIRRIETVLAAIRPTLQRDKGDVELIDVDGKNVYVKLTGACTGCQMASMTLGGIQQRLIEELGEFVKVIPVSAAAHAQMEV
# B1: TS-NifB^USF (SU9-Twin-Strep-NifBMi purified from yeast strain SB33Y, co-expressed with NifU, NifS and FdxN-HA) (enzyme)
# chain: not shown
# notes: Same polypeptide as m1, purified from SB33Y; As isolated it carries about 6.1 Fe per monomer as [4Fe-4S] clusters and is active; The range 68-405 was derived from the printed N-terminus SSSAW; also called SU9-TS-NifBMi
# Molecular target: T1, NifU (A. vinelandii NifU expressed in …)
# Assay: co-purification on Strep-Tactin column from SB33Y extract, immunoblot
binder,measurement,value
B1,binding result,no binding

# — patent publication US20200080117A1 (UNIVERSIDAD POLIT CNICA DE MADRID, published 2020)
